Laboratory results: PMC2811748, “H^+-Independent Glutamine Transport in Plant Root Tips” (PLoS ONE, 2010)

Substrate: NC(=O)CC[C@H](N)C(=O)O
Experiment: cells, lysate or membranes
Type: cell-based, Arabidopsis thaliana

B1: CAT8 (Arabidopsis thaliana) (protein)
chain: MIPASMEEAHQLESRSDDLSQRRSYWRWRKQDFFPEFSFQSFSTYKSALSATCPRLADRLLSRSSDAYELDAARRESENPMRRCLTWWDLLWLSFGSVVGSGVFVITGQEARVGAGPAVVLSYAISGVSALLSVLCYAEFGVEIPVAGGSFSYLRVELGDFIAFIAAGNILLEAMVGAAGLGRSWSSYLASLVKNDSDYFRIKVDSFAKGFDLLDPVAVAVLLVANGIAMTGTKRTSWLNLITSMVTVCIIVFIVVVGFTHSKTSNLVPFFPYGAKGVVQSAAVVYWSYTGFDMVANMAEETEKPSRDIPIGLVGSMSMITVVYCLMALALTMMVKYTEIDANAAYSVAFAQIGMKWAKYLVGICALKGMTTSLLVGSLGQARYTTQIARSHMIPPWFALVHPKTGTPIYATLLVTILSSIISFFTSLEVLSSVFSFATLFIFMLVAVALLVRRYYVKDVTPEAGLLKFLGFLFLIIASSIGVSALWNSGVKGWIAYTVTGVIWFIGTLGLALLPKYRVPKVWGVPLVPWLPSFSIAMNLFLIGSLGYVAFLRFIICTMVMLLYYLFVGLHATYDVAHQPLEEAKFEGER
notes: CAT8 (At1g17120) expressed in Xenopus oocytes and in yeast 22Δ8AA
Km: 100 µM
